Results: patent US20140087995A1 (published 2014)
Numbered stars: 1 amine (or outer) side, 2 acyl side, 3 side chain; on linkers, the order of the positions; unused ones are H or OH. Bridge positions count the residues as written; N and C are the ends. Side chains are listed from the residue outwards. Ends that are not written are not given here. * marks the point of attachment. C20 diacid = O=C(O)CCCCCCCCCCCCCCCCCCC(=O)*; γGlu = O=C(O)[C@H](CCC(=O)[*:2])N[*:1]; AEEA = NCCOCCOCC(=O)O

B1: N^ε1-[2-[2-[2-[[(4S)-4-carboxy-4-(19-carboxynonadecanoylamino)butanoyl]amino]ethoxy]ethoxy]acetyl]-[His14,Arg17,Pro21,Pro27,Arg34]-h-amylin (peptide)
peptide: K([AEEA-γGlu-C20 diacid])CNTATCATQRLAHFLRHSSPNFGAIPSSTNVGRNTY-NH2
modifications: disulfide 2-7; N-terminus assumed
SMILES: CC[C@H](C)[C@H](NC(=O)[C@H](C)NC(=O)CNC(=O)[C@H](Cc1ccccc1)NC(=O)[C@H](CC(N)=O)NC(=O)[C@@H]1CCCN1C(=O)[C@H](CO)NC(=O)[C@H](CO)NC(=O)[C@H](Cc1c[nH]cn1)NC(=O)[C@H](CCCNC(=N)N)NC(=O)[C@H](CC(C)C)NC(=O)[C@H](Cc1ccccc1)NC(=O)[C@H](Cc1c[nH]cn1)NC(=O)[C@H](C)NC(=O)[C@H](CC(C)C)NC(=O)[C@H](CCCNC(=N)N)NC(=O)[C@H](CCC(N)=O)NC(=O)[C@@H](NC(=O)[C@H](C)NC(=O)[C@@H]1CSSC[C@H](NC(=O)[C@@H](N)CCCCNC(=O)COCCOCCNC(=O)CC[C@H](NC(=O)CCCCCCCCCCCCCCCCCCC(=O)O)C(=O)O)C(=O)N[C@@H](CC(N)=O)C(=O)N[C@@H]([C@@H](C)O)C(=O)N[C@@H](C)C(=O)N[C@@H]([C@@H](C)O)C(=O)N1)[C@@H](C)O)C(=O)N1CCC[C@H]1C(=O)N[C@@H](CO)C(=O)N[C@@H](CO)C(=O)N[C@H](C(=O)N[C@@H](CC(N)=O)C(=O)N[C@H](C(=O)NCC(=O)N[C@@H](CCCNC(=N)N)C(=O)N[C@@H](CC(N)=O)C(=O)N[C@H](C(=O)N[C@@H](Cc1ccc(O)cc1)C(N)=O)[C@@H](C)O)C(C)C)[C@@H](C)O
notes: also called 84; compound 84
B2: N^ε1-[2-[2-[2-[[(4S)-4-carboxy-4-(19-carboxynonadecanoylamino)butanoyl]amino]ethoxy]ethoxy]acetyl]-[His14,Arg17,Pro21,Pro27,His34]-h-amylin (peptide)
peptide: K([AEEA-γGlu-C20 diacid])CNTATCATQRLAHFLRHSSPNFGAIPSSTNVGHNTY-NH2
modifications: disulfide 2-7; N-terminus assumed
SMILES: CC[C@H](C)[C@H](NC(=O)[C@H](C)NC(=O)CNC(=O)[C@H](Cc1ccccc1)NC(=O)[C@H](CC(N)=O)NC(=O)[C@@H]1CCCN1C(=O)[C@H](CO)NC(=O)[C@H](CO)NC(=O)[C@H](Cc1c[nH]cn1)NC(=O)[C@H](CCCNC(=N)N)NC(=O)[C@H](CC(C)C)NC(=O)[C@H](Cc1ccccc1)NC(=O)[C@H](Cc1c[nH]cn1)NC(=O)[C@H](C)NC(=O)[C@H](CC(C)C)NC(=O)[C@H](CCCNC(=N)N)NC(=O)[C@H](CCC(N)=O)NC(=O)[C@@H](NC(=O)[C@H](C)NC(=O)[C@@H]1CSSC[C@H](NC(=O)[C@@H](N)CCCCNC(=O)COCCOCCNC(=O)CC[C@H](NC(=O)CCCCCCCCCCCCCCCCCCC(=O)O)C(=O)O)C(=O)N[C@@H](CC(N)=O)C(=O)N[C@@H]([C@@H](C)O)C(=O)N[C@@H](C)C(=O)N[C@@H]([C@@H](C)O)C(=O)N1)[C@@H](C)O)C(=O)N1CCC[C@H]1C(=O)N[C@@H](CO)C(=O)N[C@@H](CO)C(=O)N[C@H](C(=O)N[C@@H](CC(N)=O)C(=O)N[C@H](C(=O)NCC(=O)N[C@@H](Cc1c[nH]cn1)C(=O)N[C@@H](CC(N)=O)C(=O)N[C@H](C(=O)N[C@@H](Cc1ccc(O)cc1)C(N)=O)[C@@H](C)O)C(C)C)[C@@H](C)O
notes: also called 80; compound 80
B3: N^ε1-[2-[2-[2-[[(4S)-4-carboxy-4-(19-carboxynonadecanoylamino)butanoyl]amino]ethoxy]ethoxy]acetyl]-[His14,Arg17,Pro21,Pro27,Pro31]-h-amylin (peptide)
peptide: K([AEEA-γGlu-C20 diacid])CNTATCATQRLAHFLRHSSPNFGAIPSSTPVGSNTY-NH2
modifications: disulfide 2-7; N-terminus assumed
SMILES: CC[C@H](C)[C@H](NC(=O)[C@H](C)NC(=O)CNC(=O)[C@H](Cc1ccccc1)NC(=O)[C@H](CC(N)=O)NC(=O)[C@@H]1CCCN1C(=O)[C@H](CO)NC(=O)[C@H](CO)NC(=O)[C@H](Cc1c[nH]cn1)NC(=O)[C@H](CCCNC(=N)N)NC(=O)[C@H](CC(C)C)NC(=O)[C@H](Cc1ccccc1)NC(=O)[C@H](Cc1c[nH]cn1)NC(=O)[C@H](C)NC(=O)[C@H](CC(C)C)NC(=O)[C@H](CCCNC(=N)N)NC(=O)[C@H](CCC(N)=O)NC(=O)[C@@H](NC(=O)[C@H](C)NC(=O)[C@@H]1CSSC[C@H](NC(=O)[C@@H](N)CCCCNC(=O)COCCOCCNC(=O)CC[C@H](NC(=O)CCCCCCCCCCCCCCCCCCC(=O)O)C(=O)O)C(=O)N[C@@H](CC(N)=O)C(=O)N[C@@H]([C@@H](C)O)C(=O)N[C@@H](C)C(=O)N[C@@H]([C@@H](C)O)C(=O)N1)[C@@H](C)O)C(=O)N1CCC[C@H]1C(=O)N[C@@H](CO)C(=O)N[C@@H](CO)C(=O)N[C@H](C(=O)N1CCC[C@H]1C(=O)N[C@H](C(=O)NCC(=O)N[C@@H](CO)C(=O)N[C@@H](CC(N)=O)C(=O)N[C@H](C(=O)N[C@@H](Cc1ccc(O)cc1)C(N)=O)[C@@H](C)O)C(C)C)[C@@H](C)O
notes: also called 61; compound 61
B4: N^ε1-[2-[2-[2-[[(4S)-4-carboxy-4-(19-carboxynonadecanoylamino)butanoyl]amino]ethoxy]ethoxy]acetyl]-[His14,Arg17,Pro21,Pro27,Pro34]-h-amylin (peptide)
peptide: K([AEEA-γGlu-C20 diacid])CNTATCATQRLAHFLRHSSPNFGAIPSSTNVGPNTY-NH2
modifications: disulfide 2-7; N-terminus assumed
SMILES: CC[C@H](C)[C@H](NC(=O)[C@H](C)NC(=O)CNC(=O)[C@H](Cc1ccccc1)NC(=O)[C@H](CC(N)=O)NC(=O)[C@@H]1CCCN1C(=O)[C@H](CO)NC(=O)[C@H](CO)NC(=O)[C@H](Cc1c[nH]cn1)NC(=O)[C@H](CCCNC(=N)N)NC(=O)[C@H](CC(C)C)NC(=O)[C@H](Cc1ccccc1)NC(=O)[C@H](Cc1c[nH]cn1)NC(=O)[C@H](C)NC(=O)[C@H](CC(C)C)NC(=O)[C@H](CCCNC(=N)N)NC(=O)[C@H](CCC(N)=O)NC(=O)[C@@H](NC(=O)[C@H](C)NC(=O)[C@@H]1CSSC[C@H](NC(=O)[C@@H](N)CCCCNC(=O)COCCOCCNC(=O)CC[C@H](NC(=O)CCCCCCCCCCCCCCCCCCC(=O)O)C(=O)O)C(=O)N[C@@H](CC(N)=O)C(=O)N[C@@H]([C@@H](C)O)C(=O)N[C@@H](C)C(=O)N[C@@H]([C@@H](C)O)C(=O)N1)[C@@H](C)O)C(=O)N1CCC[C@H]1C(=O)N[C@@H](CO)C(=O)N[C@@H](CO)C(=O)N[C@H](C(=O)N[C@@H](CC(N)=O)C(=O)N[C@H](C(=O)NCC(=O)N1CCC[C@H]1C(=O)N[C@@H](CC(N)=O)C(=O)N[C@H](C(=O)N[C@@H](Cc1ccc(O)cc1)C(N)=O)[C@@H](C)O)C(C)C)[C@@H](C)O
notes: also called 68; compound 68
B5: N^ε1-[2-[2-[2-[[(4S)-4-carboxy-4-(19-carboxynonadecanoylamino)butanoyl]amino]ethoxy]ethoxy]acetyl]-[His14,Arg17,Pro21,Pro27]-h-amylin (peptide)
peptide: K([AEEA-γGlu-C20 diacid])CNTATCATQRLAHFLRHSSPNFGAIPSSTNVGSNTY-NH2
modifications: disulfide 2-7; N-terminus assumed
SMILES: CC[C@H](C)[C@H](NC(=O)[C@H](C)NC(=O)CNC(=O)[C@H](Cc1ccccc1)NC(=O)[C@H](CC(N)=O)NC(=O)[C@@H]1CCCN1C(=O)[C@H](CO)NC(=O)[C@H](CO)NC(=O)[C@H](Cc1c[nH]cn1)NC(=O)[C@H](CCCNC(=N)N)NC(=O)[C@H](CC(C)C)NC(=O)[C@H](Cc1ccccc1)NC(=O)[C@H](Cc1c[nH]cn1)NC(=O)[C@H](C)NC(=O)[C@H](CC(C)C)NC(=O)[C@H](CCCNC(=N)N)NC(=O)[C@H](CCC(N)=O)NC(=O)[C@@H](NC(=O)[C@H](C)NC(=O)[C@@H]1CSSC[C@H](NC(=O)[C@@H](N)CCCCNC(=O)COCCOCCNC(=O)CC[C@H](NC(=O)CCCCCCCCCCCCCCCCCCC(=O)O)C(=O)O)C(=O)N[C@@H](CC(N)=O)C(=O)N[C@@H]([C@@H](C)O)C(=O)N[C@@H](C)C(=O)N[C@@H]([C@@H](C)O)C(=O)N1)[C@@H](C)O)C(=O)N1CCC[C@H]1C(=O)N[C@@H](CO)C(=O)N[C@@H](CO)C(=O)N[C@H](C(=O)N[C@@H](CC(N)=O)C(=O)N[C@H](C(=O)NCC(=O)N[C@@H](CO)C(=O)N[C@@H](CC(N)=O)C(=O)N[C@H](C(=O)N[C@@H](Cc1ccc(O)cc1)C(N)=O)[C@@H](C)O)C(C)C)[C@@H](C)O
notes: also called 69; compound 69
B6: N^ε1-[2-[2-[2-[[(4S)-4-carboxy-4-(19-carboxynonadecanoylamino)butanoyl]amino]ethoxy]ethoxy]acetyl]-[Lys14,Arg17,Pro21,Pro27,Pro31]-h-amylin (peptide)
peptide: K([AEEA-γGlu-C20 diacid])CNTATCATQRLAKFLRHSSPNFGAIPSSTPVGSNTY-NH2
modifications: disulfide 2-7; N-terminus assumed
SMILES: CC[C@H](C)[C@H](NC(=O)[C@H](C)NC(=O)CNC(=O)[C@H](Cc1ccccc1)NC(=O)[C@H](CC(N)=O)NC(=O)[C@@H]1CCCN1C(=O)[C@H](CO)NC(=O)[C@H](CO)NC(=O)[C@H](Cc1c[nH]cn1)NC(=O)[C@H](CCCNC(=N)N)NC(=O)[C@H](CC(C)C)NC(=O)[C@H](Cc1ccccc1)NC(=O)[C@H](CCCCN)NC(=O)[C@H](C)NC(=O)[C@H](CC(C)C)NC(=O)[C@H](CCCNC(=N)N)NC(=O)[C@H](CCC(N)=O)NC(=O)[C@@H](NC(=O)[C@H](C)NC(=O)[C@@H]1CSSC[C@H](NC(=O)[C@@H](N)CCCCNC(=O)COCCOCCNC(=O)CC[C@H](NC(=O)CCCCCCCCCCCCCCCCCCC(=O)O)C(=O)O)C(=O)N[C@@H](CC(N)=O)C(=O)N[C@@H]([C@@H](C)O)C(=O)N[C@@H](C)C(=O)N[C@@H]([C@@H](C)O)C(=O)N1)[C@@H](C)O)C(=O)N1CCC[C@H]1C(=O)N[C@@H](CO)C(=O)N[C@@H](CO)C(=O)N[C@H](C(=O)N1CCC[C@H]1C(=O)N[C@H](C(=O)NCC(=O)N[C@@H](CO)C(=O)N[C@@H](CC(N)=O)C(=O)N[C@H](C(=O)N[C@@H](Cc1ccc(O)cc1)C(N)=O)[C@@H](C)O)C(C)C)[C@@H](C)O
notes: also called 74; compound 74

Molecular target: T1, human amylin receptor (amylin 3(a) receptor: human calcitonin receptor with RAMP-3) (human, UniProt P30988 25-474; O60896 24-148)
T1 construct: whole, on cells; also called hAmylin-R; hAmylinR
T1 sequence (looked up) 1: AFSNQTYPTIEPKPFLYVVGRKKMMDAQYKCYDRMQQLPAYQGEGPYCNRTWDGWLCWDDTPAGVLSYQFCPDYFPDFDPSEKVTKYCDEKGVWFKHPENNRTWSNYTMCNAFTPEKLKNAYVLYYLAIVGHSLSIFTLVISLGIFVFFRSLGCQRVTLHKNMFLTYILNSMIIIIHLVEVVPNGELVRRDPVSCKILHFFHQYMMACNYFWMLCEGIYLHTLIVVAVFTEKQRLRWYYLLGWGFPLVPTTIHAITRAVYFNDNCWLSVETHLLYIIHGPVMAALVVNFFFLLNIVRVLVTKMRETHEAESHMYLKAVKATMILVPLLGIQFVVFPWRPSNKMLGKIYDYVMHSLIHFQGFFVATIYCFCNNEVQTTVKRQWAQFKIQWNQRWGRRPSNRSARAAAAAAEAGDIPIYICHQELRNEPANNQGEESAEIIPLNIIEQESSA
T1 sequence (looked up) 2: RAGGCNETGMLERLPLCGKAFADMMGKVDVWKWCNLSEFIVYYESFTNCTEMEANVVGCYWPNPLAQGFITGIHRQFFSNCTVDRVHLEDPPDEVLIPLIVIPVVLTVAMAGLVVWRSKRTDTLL
Experiment: SPA displacement of 125I-rat amylin, hAmylin 3(a) receptor membranes
How it was run: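 SPA beads with BHK Amylin 3(a)/CRE-luc cell membranes (35 ng/μL final) in 50 mM Hepes pH 7.4, 1 mM CaCl2, 5 mM MgCl₂, 0.1% OA, 0.02% Tween20.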

Binder | IC50
B1 | 0.743 nM
B2 | 0.29 nM
B3 | 0.122 nM
B4 | 0.088 nM
B5 | 0.133 nM
B6 | 0.791 nM
